Among the data in US20250186604A1 (ADC THERAPEUTICS, published 2025) are EC50 values, retold here.

In general, EC50 refers to the concentration needed to bring the measured effect to its halfway point. Low values mean an effect from little substance, high ones a need for much substance.

The labels stand for the following.
B1: D2B (antibody, V domains shown)
VH: EVKLQESGPGLVKPSQSLSLTCSVTGYSITSGYYWNWIRQFPGNKLEWMGSISFDGNNNYNPSLRNRISITRDTSKNQFFLKLNSVTTEDTATYYCAREGDYYGSSFFTYWGQGTLVTVS
VL: DIVMTQSPASLSASVGETVTLTCGASENIYGALNWYQRKQGKSPQLLIYGATNLADGMSSRFSGSGSGRQYSLKISSLHPDDVATYYCQNVFRTYTFGGGTKLEIKR
B2: MDX 2A10 (antibody, human IgG1, kappa, V domains shown)
VH: EVQLVQSGAEVKKPGESLKISCKGSGYSFTSNWIGWVRQMPGKGLEWMGIIYPGDSDTRYSPSFQGQVTISADKSISTAYLQWSSLKASDTAMYYCARQTGFLWSSDLWGRGTLVTVSS
VL: AIQLTQSPSSLSASVGDRVTITCRASQDISSALAWYQQKPGKAPKLLIYDASSLESGVPSRFSGYGSGTDFTLTINSLQPEDFATYYCQQFNSYPLTFGGGTKVEIKR
notes: also called antibody 2A10
B3: J415 (antibody, V domains shown)
VH: EVKLEESGGGLVQPGGSMKLSCVASGFTFSNYWMNWVRQSPEKGLEWVAEIRSQSNNFATHYAESVKGRVIISRDDSKSSVYLQMNNLRAEDTGIYYCTRRWNNFWGQGTTLTVSS
VL: NIVMTQFPKSMSISVGERVTLTCKASENVGTYVSWYQQKPEQSPKMLIYGASNRFTGVPDRFTGSGSATDFILTISSVQTEDLVDYYCGQSYTFPYTFGGGTKLEMK

T1 sequence (Q04609 44-750 limits assumed): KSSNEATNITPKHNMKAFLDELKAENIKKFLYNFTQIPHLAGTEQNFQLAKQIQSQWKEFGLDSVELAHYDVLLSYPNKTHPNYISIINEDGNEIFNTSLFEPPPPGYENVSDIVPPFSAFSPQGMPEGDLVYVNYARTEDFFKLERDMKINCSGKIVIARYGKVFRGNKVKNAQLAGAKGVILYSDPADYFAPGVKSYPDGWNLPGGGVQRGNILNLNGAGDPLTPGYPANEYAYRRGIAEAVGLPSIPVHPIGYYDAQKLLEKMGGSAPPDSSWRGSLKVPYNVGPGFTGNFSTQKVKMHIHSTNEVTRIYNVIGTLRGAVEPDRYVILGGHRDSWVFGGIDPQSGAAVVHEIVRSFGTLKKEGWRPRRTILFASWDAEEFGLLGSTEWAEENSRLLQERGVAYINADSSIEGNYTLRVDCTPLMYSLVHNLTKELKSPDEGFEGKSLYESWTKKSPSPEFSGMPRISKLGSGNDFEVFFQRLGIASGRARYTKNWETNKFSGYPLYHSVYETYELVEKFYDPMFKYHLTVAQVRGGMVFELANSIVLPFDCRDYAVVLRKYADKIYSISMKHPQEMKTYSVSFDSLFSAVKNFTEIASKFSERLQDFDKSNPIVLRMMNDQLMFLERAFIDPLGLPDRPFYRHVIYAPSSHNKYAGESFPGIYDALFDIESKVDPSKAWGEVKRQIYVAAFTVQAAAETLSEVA

The assay addresses T1, Human PSMA (Prostate-Specific Membrane Antigen) (human, UniProt Q04609 44-750, limits assumed).
T1 construct: Coated on a 96 well plate at 3 ug/ml
The experiment in a line: ELISA, human PSMA coated on plate, anti-human-IgG-HRP detection. Here is the method: Human PSMA was coated on a 96 well plate at 3 μg/ml for at least two hours at room temperature. The plate was washed with wash buffer (0.05% Tween-20 in PBS), then blocked with blocking buffer (3% BSA in PBS) washed again using wash buffer. After which antibodies were titrated from 66.6 nM to 0.013 nM and added to the plate and incubated at room temperature for one hour, after which the plate was washed and anti-human-IgG-HRP added, the plate was incubated for a further 1 hour at room temperature, before being washed and TMB detection reagent added, the reaction was stopped by the addition of 1M HCl to the wells, after which the plate was read at 450 nm using the SpectraMax plate reader.
For orientation: ELISA stands for enzyme-linked immunosorbent assay.
Consider B1, for which it took 0.173 nM to reach a half-maximal effect (EC50). This lies in the sub-nanomolar range.
B2 registered an EC50 of 0.115 nM.
Regarding B3, the EC50 was found to be 24.8 nM. Against the preceding molecule, the EC50 is about 220-fold higher.
